Assay results: patent US20260167728A1 (published 2026)

Target: T1, huCD3e-mFc (human, UniProt P07766 23-126)
T1 construct: not shown: mFc, not described
Assay: Pool 3 screen

T1 sequence (P07766 23-126): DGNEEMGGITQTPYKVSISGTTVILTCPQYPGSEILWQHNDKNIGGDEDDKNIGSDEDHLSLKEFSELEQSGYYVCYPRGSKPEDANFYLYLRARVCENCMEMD

B1: AC3804 (CD3.300) (scFv, V domains shown)
VH: EVQLVESGGGIVQPGGSLRLSCAASGFTFSTYAMNWVRQAPGKGLEWVGRIRTKRNNYATYYADSVKGRFTISRDDSKNTVYLQMNSLKTEDTAVYYCVRHENFGNSYVSWFAHWGQGTLVTVSS
VL: ELVVTQEPSLTVSPGGTVTLTCRSSNGAVTSSNYANWVQQKPGQAPRGLIGGTNKRAPGTPARFSGSLLEGKAALTLSGVQPEDEAVYYCALWYPNLWVFGGGTKLTVL
notes: Pool 3 format (remarks)
Kd: 36.6 nM

B2: AC3824 (CD3.320) (scFv, V domains shown)
VH: EVQLVESGGGIVQPGGSLRLSCAASGFTFNTYAMNWVRQAPGKGLEWVGRIRTKTNNYATYYADSVKGRFTISRDDSKNTVYLQMNSLKTEDTAVYYCVRHENFGNSYVSWFAHWGQGTLVTVSS
VL: ELVVTQEPSLTVSPGGTVTLTCRSSNGAVTSSNYANWVQQKPGQAPRGLIGGTNKRAPGTPARFSGSALGGKAALTLSGVQPEDEAVYYCALWYPNLWVFGGGTKLTVL
notes: Pool 3 format (remarks)
Kd: 10.9 nM

B3: AC3810 (CD3.306) (scFv, V domains shown)
VH: EVQLVESGGGIVQPGGSLRLSCAASGFTFSTYAMNWVRQAPGKGLEWVGRIRTKRNDYATYYADSVKGRFTISRDDSKNTAYLQMNSLKTEDTAVYYCVRHENFGNSYVSWFAHWGQGTLVTVSS
VL: ELVVTQEPSLTVSPGGTVTLTCRSSNGAVTSSNYANWVQQKPGQAPRGLIGGTNKRAPGTPARFSGSLGGGKAALTLSGVQPEDEAVYYCALWYPNLWVFGGGTKLTVL
notes: Pool 3 format (remarks)
Kd: 5.09 nM

B4: AC3816 (CD3.312) (scFv, V domains shown)
VH: EVQLVESGGGIVQPGGSLRLSCAASGFTFSTYAMNWVRQAPGKGLEWVGRIRTKRNDYATYYADSVKGRFTISRDDSKNTLYLQMNSLKTEDTAVYYCVRHENFGNSYVSWFAHWGQGTLVTVSS
VL: ELVVTQEPSLTVSPGGTVTLTCRSSNGAVTSSNYANWVQQKPGQAPRGLIGGTNKRAPGTPARFSGSGLGGKAALTLSGVQPEDEAVYYCALWYPNLWVFGGGTKLTVL
notes: Pool 3 format (remarks)
Kd: 4.12 nM

B5: AC3818 (CD3.314) (scFv, V domains shown)
VH: EVQLVESGGGIVQPGGSLRLSCAASGFTFSTYAMNWVRQAPGKGLEWVGRIRTKRNDYATYYADSVKGRFTISRDDSKNTLYLQMNSLKTEDTAVYYCVRHENFGNSYVSWFAHWGQGTLVTVSS
VL: ELVVTQEPSLTVSPGGTVTLTCRSSNGAVTSSNYANWVQQKPGQAPRGLIGGTNKRAPGTPARFSGSLEGGKAALTLSGVQPEDEAVYYCALWYPNLWVFGGGTKLTVL
notes: Pool 3 format (remarks)
Kd: 4.02 nM

B6: AC3817 (CD3.313) (scFv, V domains shown)
VH: EVQLVESGGGIVQPGGSLRLSCAASGFTFSTYAMNWVRQAPGKGLEWVGRIRTKRNDYATYYADSVKGRFTISRDDSKNTLYLQMNSLKTEDTAVYYCVRHENFGNSYVSWFAHWGQGTLVTVSS
VL: ELVVTQEPSLTVSPGGTVTLTCRSSNGAVTSSNYANWVQQKPGQAPRGLIGGTNKRAPGTPARFSGSLNGGKAALTLSGVQPEDEAVYYCALWYPNLWVFGGGTKLTVL
notes: Pool 3 format (remarks)
Kd: 3.86 nM

B7: AC3807 (CD3.303) (scFv, V domains shown)
VH: EVQLVESGGGIVQPGGSLRLSCAASGFTFSTYAMNWVRQAPGKGLEWVGRIRTKRNDYATYYADSVKGRFTISRDDSKNTAYLQMNSLKTEDTAVYYCVRHENFGNSYVSWFAHWGQGTLVTVSS
VL: ELVVTQEPSLTVSPGGTVTLTCRSSNGAVTSSNYANWVQQKPGQAPRGLIGGTNKRAPGTPARFSGSGLGGKAALTLSGVQPEDEAVYYCALWYPNLWVFGGGTKLTVL
notes: Pool 3 format (remarks)
Kd: 6.08 nM

B8: AC3819 (CD3.315) (scFv, V domains shown)
VH: EVQLVESGGGIVQPGGSLRLSCAASGFTFSTYAMNWVRQAPGKGLEWVGRIRTKRNDYATYYADSVKGRFTISRDDSKNTLYLQMNSLKTEDTAVYYCVRHENFGNSYVSWFAHWGQGTLVTVSS
VL: ELVVTQEPSLTVSPGGTVTLTCRSSNGAVTSSNYANWVQQKPGQAPRGLIGGTNKRAPGTPARFSGSLGGGKAALTLSGVQPEDEAVYYCALWYPNLWVFGGGTKLTVL
notes: Pool 3 format (remarks)
Kd: 3.4 nM

B9: AC3814 (CD3.310) (scFv, V domains shown)
VH: EVQLVESGGGIVQPGGSLRLSCAASGFTFSTYAMNWVRQAPGKGLEWVGRIRTKRNDYATYYADSVKGRFTISRDDSKNTLYLQMNSLKTEDTAVYYCVRHENFGNSYVSWFAHWGQGTLVTVSS
VL: ELVVTQEPSLTVSPGGTVTLTCRSSNGAVTSSNYANWVQQKPGQAPRGLIGGTNKRAPGTPARFSGSLLGGKAALTLSGVQPEDEAVYYCALWYPNLWVFGGGTKLTVL
notes: Pool 3 format (remarks)
Kd: 4.1 nM

B10: AC3820 (CD3.316) (scFv, V domains shown)
VH: EVQLVESGGGIVQPGGSLRLSCAASGFTFSTYAMNWVRQAPGKGLEWVGRIRTKRNDYATYYADSVKGRFTISRDDSKNTLYLQMNSLKTEDTAVYYCVRHENFGNSYVSWFAHWGQGTLVTVSS
VL: ELVVTQEPSLTVSPGGTVTLTCRSSNGAVTSSNYANWVQQKPGQAPRGLIGGTNKRAPGTPARFSGSLDGGKAALTLSGVQPEDEAVYYCALWYPNLWVFGGGTKLTVL
notes: Pool 3 format (remarks)
Kd: 3.99 nM

B11: AC3821 (CD3.317) (scFv, V domains shown)
VH: EVQLVESGGGIVQPGGSLRLSCAASGFTFSTYAMNWVRQAPGKGLEWVGRIRTKRNDYATYYADSVKGRFTISRDDSKNTLYLQMNSLKTEDTAVYYCVRHENFGNSYVSWFAHWGQGTLVTVSS
VL: ELVVTQEPSLTVSPGGTVTLTCRSSNGAVTSSNYANWVQQKPGQAPRGLIGGTNKRAPGTPARFSGSLLGGKAGLTLSGVQPEDEAVYYCALWYPNLWVFGGGTKLTVL
notes: Pool 3 format (remarks)
Kd: 4.1 nM

B12: AC3812 (CD3.308) (scFv, V domains shown)
VH: EVQLVESGGGIVQPGGSLRLSCAASGFTFSTYAMNWVRQAPGKGLEWVGRIRTKRNDYATYYADSVKGRFTISRDDSKNTAYLQMNSLKTEDTAVYYCVRHENFGNSYVSWFAHWGQGTLVTVSS
VL: ELVVTQEPSLTVSPGGTVTLTCRSSNGAVTSSNYANWVQQKPGQAPRGLIGGTNKRAPGTPARFSGSLLGGKAGLTLSGVQPEDEAVYYCALWYPNLWVFGGGTKLTVL
notes: Pool 3 format (remarks)
Kd: 5.56 nM

B13: AC3806 (CD3.302) (scFv, V domains shown)
VH: EVQLVESGGGIVQPGGSLRLSCAASGFTFSTYAMNWVRQAPGKGLEWVGRIRTKRNDYATYYADSVKGRFTISRDDSKNTAYLQMNSLKTEDTAVYYCVRHENFGNSYVSWFAHWGQGTLVTVSS
VL: ELVVTQEPSLTVSPGGTVTLTCRSSNGAVTSSNYANWVQQKPGQAPRGLIGGTNKRAPGTPARFSGSALGGKAALTLSGVQPEDEAVYYCALWYPNLWVFGGGTKLTVL
notes: Pool 3 format (remarks)
Kd: 5.09 nM

B14: AC3815 (CD3.311) (scFv, V domains shown)
VH: EVQLVESGGGIVQPGGSLRLSCAASGFTFSTYAMNWVRQAPGKGLEWVGRIRTKRNDYATYYADSVKGRFTISRDDSKNTLYLQMNSLKTEDTAVYYCVRHENFGNSYVSWFAHWGQGTLVTVSS
VL: ELVVTQEPSLTVSPGGTVTLTCRSSNGAVTSSNYANWVQQKPGQAPRGLIGGTNKRAPGTPARFSGSALGGKAALTLSGVQPEDEAVYYCALWYPNLWVFGGGTKLTVL
notes: Pool 3 format (remarks)
Kd: 4.53 nM

B15: AC3808 (CD3.304) (scFv, V domains shown)
VH: EVQLVESGGGIVQPGGSLRLSCAASGFTFSTYAMNWVRQAPGKGLEWVGRIRTKRNDYATYYADSVKGRFTISRDDSKNTAYLQMNSLKTEDTAVYYCVRHENFGNSYVSWFAHWGQGTLVTVSS
VL: ELVVTQEPSLTVSPGGTVTLTCRSSNGAVTSSNYANWVQQKPGQAPRGLIGGTNKRAPGTPARFSGSLNGGKAALTLSGVQPEDEAVYYCALWYPNLWVFGGGTKLTVL
notes: Pool 3 format (remarks)
Kd: 4.31 nM
